From the supplement of paper PMC9233669
Fewer inactive variants are shown than the library holds.

Tests used:
biotinyl-Leu-oxazolone = experiment: self-aminoacylation, catalytic enhancement (BLO) (fold over background); higher = more active; k-Seq, kA / k0A0; sequences stand for … in GGGAAUGGAUCCACAUCUACGAAUUC…UUCACUGCAGACUUGACGAAGCUG
Outline: (§1)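 Catalytic enhancement equals the median kA over the uncatalyzed rate, the latter read from the low-activity peak of a bimodal Gaussian fit. Values of kA came from fitting each sequence's fraction reacted to a pseudo-first-order model, with 1000 bootstraps. Reacted RNA was captured with streptavidin and quantified by triplicate qPCR and Illumina sequencing after 90 minutes at room temperature with 2–1250 μM biotinyl-aminoacyl-oxazolone and 0.43 μM mutagenized RNA pools bearing a 21-nt variable region.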

biotinyl-Ile-oxazolone = experiment: self-aminoacylation, catalytic enhancement (BIO) (fold over background); higher = more active; k-Seq, kA / k0A0; sequences stand for … in GGGAAUGGAUCCACAUCUACGAAUUC…UUCACUGCAGACUUGACGAAGCUG
Outline: as §1

biotinyl-Val-oxazolone = experiment: self-aminoacylation, catalytic enhancement (BVO) (fold over background); higher = more active; k-Seq, kA / k0A0; sequences stand for … in GGGAAUGGAUCCACAUCUACGAAUUC…UUCACUGCAGACUUGACGAAGCUG
Outline: as §1

biotinyl-Met-oxazolone = experiment: self-aminoacylation, catalytic enhancement (BMO) (fold over background); higher = more active; k-Seq, kA / k0A0; sequences stand for … in GGGAAUGGAUCCACAUCUACGAAUUC…UUCACUGCAGACUUGACGAAGCUG
Outline: as §1

biotinyl-Trp-oxazolone = experiment: self-aminoacylation, catalytic enhancement (BWO) (fold over background); higher = more active; k-Seq, kA / k0A0; sequences stand for … in GGGAAUGGAUCCACAUCUACGAAUUC…UUCACUGCAGACUUGACGAAGCUG
Outline: as §1

biotinyl-Phe-oxazolone = experiment: self-aminoacylation, catalytic enhancement (BFO) (fold over background); higher = more active; k-Seq, kA / k0A0; sequences stand for … in GGGAAUGGAUCCACAUCUACGAAUUC…UUCACUGCAGACUUGACGAAGCUG
Outline: as §1

Sequence: CUACUUGAAACAAUCGUUCUG [Fam1A.1 aminoacylation ribozyme variant]
- self-aminoacylation (biotinyl-Leu-oxazolone): 0.645
- self-aminoacylation (biotinyl-Ile-oxazolone): 0.635
- self-aminoacylation (biotinyl-Val-oxazolone): 0.561
- self-aminoacylation (biotinyl-Met-oxazolone): 0.614
- self-aminoacylation (biotinyl-Trp-oxazolone): 0.379
- self-aminoacylation (biotinyl-Phe-oxazolone): 0.5

Sequence: AUUAACCUGGUCAUCGAGCGA [Fam2.1 aminoacylation ribozyme variant]
- self-aminoacylation (biotinyl-Leu-oxazolone): 1.68
- self-aminoacylation (biotinyl-Ile-oxazolone): 1.79
- self-aminoacylation (biotinyl-Val-oxazolone): 1.5
- self-aminoacylation (biotinyl-Met-oxazolone): 1.88
- self-aminoacylation (biotinyl-Trp-oxazolone): 1.37
- self-aminoacylation (biotinyl-Phe-oxazolone): 1.01

Sequence: CCACACUUCAAGCCCUCGGUC [Fam1B.1 aminoacylation ribozyme variant]
- self-aminoacylation (biotinyl-Leu-oxazolone): 1.64
- self-aminoacylation (biotinyl-Ile-oxazolone): 1.4
- self-aminoacylation (biotinyl-Val-oxazolone): 1.58
- self-aminoacylation (biotinyl-Met-oxazolone): 2.01
- self-aminoacylation (biotinyl-Trp-oxazolone): 1.92
- self-aminoacylation (biotinyl-Phe-oxazolone): 5.16

Sequence: CUACUUCAAACAAUAGGUCUG [Fam1A.1 aminoacylation ribozyme variant]
- self-aminoacylation (biotinyl-Leu-oxazolone): 0.681
- self-aminoacylation (biotinyl-Ile-oxazolone): 0.813
- self-aminoacylation (biotinyl-Val-oxazolone): 0.817
- self-aminoacylation (biotinyl-Met-oxazolone): 0.696
- self-aminoacylation (biotinyl-Trp-oxazolone): 0.617
- self-aminoacylation (biotinyl-Phe-oxazolone): 1.11

Sequence: AAGGUUGCUAAUGGUCGCAAG [Fam3.1 aminoacylation ribozyme variant]
- self-aminoacylation (biotinyl-Leu-oxazolone): 0.828
- self-aminoacylation (biotinyl-Ile-oxazolone): 1.06
- self-aminoacylation (biotinyl-Val-oxazolone): 1
- self-aminoacylation (biotinyl-Met-oxazolone): 0.949
- self-aminoacylation (biotinyl-Trp-oxazolone): 0.994
- self-aminoacylation (biotinyl-Phe-oxazolone): 1.68

Sequence: AAGUUUGCCAAUGGUCGCAAG [Fam3.1 aminoacylation ribozyme variant]
- self-aminoacylation (biotinyl-Leu-oxazolone): 1
- self-aminoacylation (biotinyl-Ile-oxazolone): 0.987
- self-aminoacylation (biotinyl-Val-oxazolone): 0.852
- self-aminoacylation (biotinyl-Met-oxazolone): 1.02
- self-aminoacylation (biotinyl-Trp-oxazolone): 1.01
- self-aminoacylation (biotinyl-Phe-oxazolone): 0.499

Sequence: CUACUUCAAUCAAUCGGUCGG [Fam1A.1 aminoacylation ribozyme variant]
- self-aminoacylation (biotinyl-Leu-oxazolone): 1.47
- self-aminoacylation (biotinyl-Ile-oxazolone): 1.15
- self-aminoacylation (biotinyl-Val-oxazolone): 1.04
- self-aminoacylation (biotinyl-Met-oxazolone): 1.39
- self-aminoacylation (biotinyl-Trp-oxazolone): 12.2
- self-aminoacylation (biotinyl-Phe-oxazolone): 15.8

Sequence: CUACUUCAAAAAAUCGGUUUG [Fam1A.1 aminoacylation ribozyme variant]
- self-aminoacylation (biotinyl-Leu-oxazolone): 0.84
- self-aminoacylation (biotinyl-Ile-oxazolone): 1.03
- self-aminoacylation (biotinyl-Val-oxazolone): 0.695
- self-aminoacylation (biotinyl-Met-oxazolone): 0.73
- self-aminoacylation (biotinyl-Trp-oxazolone): 6.33
- self-aminoacylation (biotinyl-Phe-oxazolone): 9.83

Sequence: AUUACCCUAGUCAUCGAGUGU [Fam2.1 aminoacylation ribozyme variant]
- self-aminoacylation (biotinyl-Leu-oxazolone): 2.55
- self-aminoacylation (biotinyl-Ile-oxazolone): 1.95
- self-aminoacylation (biotinyl-Val-oxazolone): 1.95
- self-aminoacylation (biotinyl-Met-oxazolone): 2.47
- self-aminoacylation (biotinyl-Trp-oxazolone): 2.62
- self-aminoacylation (biotinyl-Phe-oxazolone): 6.11

Sequence: AUGUUUGCUAAUAGUCGCAAC [Fam3.1 aminoacylation ribozyme variant]
- self-aminoacylation (biotinyl-Leu-oxazolone): 1.04
- self-aminoacylation (biotinyl-Ile-oxazolone): 1.15
- self-aminoacylation (biotinyl-Val-oxazolone): 1.05
- self-aminoacylation (biotinyl-Met-oxazolone): 1.05
- self-aminoacylation (biotinyl-Trp-oxazolone): 1.08
- self-aminoacylation (biotinyl-Phe-oxazolone): 1.82

Sequence: AAGUUUGCUAAUAGCAGCAAG [Fam3.1 aminoacylation ribozyme variant]
- self-aminoacylation (biotinyl-Leu-oxazolone): 0.646
- self-aminoacylation (biotinyl-Ile-oxazolone): 0.793
- self-aminoacylation (biotinyl-Val-oxazolone): 0.851
- self-aminoacylation (biotinyl-Met-oxazolone): 0.683
- self-aminoacylation (biotinyl-Trp-oxazolone): 0.754
- self-aminoacylation (biotinyl-Phe-oxazolone): 1.12

Sequence: CUACUUCAAGCAAUCGGGCUG [Fam1A.1 aminoacylation ribozyme variant]
- self-aminoacylation (biotinyl-Leu-oxazolone): 2.58
- self-aminoacylation (biotinyl-Ile-oxazolone): 2.01
- self-aminoacylation (biotinyl-Val-oxazolone): 1.61
- self-aminoacylation (biotinyl-Met-oxazolone): 1.8
- self-aminoacylation (biotinyl-Trp-oxazolone): 3.87
- self-aminoacylation (biotinyl-Phe-oxazolone): 3.43

Sequence: AAGUUUGCUAAUGGUCGCGAG [Fam3.1 aminoacylation ribozyme variant]
- self-aminoacylation (biotinyl-Leu-oxazolone): 1.59
- self-aminoacylation (biotinyl-Ile-oxazolone): 1.21
- self-aminoacylation (biotinyl-Val-oxazolone): 1.27
- self-aminoacylation (biotinyl-Met-oxazolone): 1.15
- self-aminoacylation (biotinyl-Trp-oxazolone): 1.82
- self-aminoacylation (biotinyl-Phe-oxazolone): 8.04

Sequence: CUAAUUCAAACAAACGGUCUG [Fam1A.1 aminoacylation ribozyme variant]
- self-aminoacylation (biotinyl-Leu-oxazolone): 0.561
- self-aminoacylation (biotinyl-Ile-oxazolone): 0.823
- self-aminoacylation (biotinyl-Val-oxazolone): 0.917
- self-aminoacylation (biotinyl-Met-oxazolone): 0.616
- self-aminoacylation (biotinyl-Trp-oxazolone): 0.543
- self-aminoacylation (biotinyl-Phe-oxazolone): 0.687

Sequence: AUUCACAUAGGGCAUCGGGUG [Fam2.2 aminoacylation ribozyme variant]
- self-aminoacylation (biotinyl-Leu-oxazolone): 3.62
- self-aminoacylation (biotinyl-Ile-oxazolone): 3.83
- self-aminoacylation (biotinyl-Val-oxazolone): 3.39
- self-aminoacylation (biotinyl-Met-oxazolone): 4.4
- self-aminoacylation (biotinyl-Trp-oxazolone): 4.52
- self-aminoacylation (biotinyl-Phe-oxazolone): 20.9

Sequence: AUUAGCCUGGUCAACGAGUGA [Fam2.1 aminoacylation ribozyme variant]
- self-aminoacylation (biotinyl-Leu-oxazolone): 5.61
- self-aminoacylation (biotinyl-Ile-oxazolone): 3.71
- self-aminoacylation (biotinyl-Val-oxazolone): 3.45
- self-aminoacylation (biotinyl-Met-oxazolone): 5.21
- self-aminoacylation (biotinyl-Trp-oxazolone): 6.82
- self-aminoacylation (biotinyl-Phe-oxazolone): 18.2

Sequence: AUUACCCUGGUCCUCGAGUGC [Fam2.1 aminoacylation ribozyme variant]
- self-aminoacylation (biotinyl-Leu-oxazolone): 1.07
- self-aminoacylation (biotinyl-Ile-oxazolone): 0.969
- self-aminoacylation (biotinyl-Val-oxazolone): 1.06
- self-aminoacylation (biotinyl-Met-oxazolone): 0.658
- self-aminoacylation (biotinyl-Trp-oxazolone): 1.31
- self-aminoacylation (biotinyl-Phe-oxazolone): 2.51

Sequence: CCACUCUUCACGCAAUCGGUC [Fam1B.1 aminoacylation ribozyme variant]
- self-aminoacylation (biotinyl-Leu-oxazolone): 1.13
- self-aminoacylation (biotinyl-Ile-oxazolone): 1.08
- self-aminoacylation (biotinyl-Val-oxazolone): 1.21
- self-aminoacylation (biotinyl-Met-oxazolone): 1.05
- self-aminoacylation (biotinyl-Trp-oxazolone): 0.952
- self-aminoacylation (biotinyl-Phe-oxazolone): 0.819

Sequence: UAGUUUGGUAAUAGUCGCAAG [Fam3.1 aminoacylation ribozyme variant]
- self-aminoacylation (biotinyl-Leu-oxazolone): 1.81
- self-aminoacylation (biotinyl-Ile-oxazolone): 1.73
- self-aminoacylation (biotinyl-Val-oxazolone): 1.57
- self-aminoacylation (biotinyl-Met-oxazolone): 1.74
- self-aminoacylation (biotinyl-Trp-oxazolone): 1.96
- self-aminoacylation (biotinyl-Phe-oxazolone): 2.29

Sequence: AUUCGCCUAGGUAAUCGGGUG [Fam2.2 aminoacylation ribozyme variant]
- self-aminoacylation (biotinyl-Leu-oxazolone): 3.88
- self-aminoacylation (biotinyl-Ile-oxazolone): 2.02
- self-aminoacylation (biotinyl-Val-oxazolone): 2.43
- self-aminoacylation (biotinyl-Met-oxazolone): 3.62
- self-aminoacylation (biotinyl-Trp-oxazolone): 2.77
- self-aminoacylation (biotinyl-Phe-oxazolone): 28

Sequence: AUUACCCUGAUCAUCGCGUGA [Fam2.1 aminoacylation ribozyme variant]
- self-aminoacylation (biotinyl-Leu-oxazolone): 14.1
- self-aminoacylation (biotinyl-Ile-oxazolone): 5.83
- self-aminoacylation (biotinyl-Val-oxazolone): 7.01
- self-aminoacylation (biotinyl-Met-oxazolone): 14.7
- self-aminoacylation (biotinyl-Trp-oxazolone): 14.9
- self-aminoacylation (biotinyl-Phe-oxazolone): 99.5

Sequence: AAAUUUGGUAAUAGUCGCAAG [Fam3.1 aminoacylation ribozyme variant]
- self-aminoacylation (biotinyl-Leu-oxazolone): 1.86
- self-aminoacylation (biotinyl-Ile-oxazolone): 2.2
- self-aminoacylation (biotinyl-Val-oxazolone): 1.74
- self-aminoacylation (biotinyl-Met-oxazolone): 1.88
- self-aminoacylation (biotinyl-Trp-oxazolone): 2.27
- self-aminoacylation (biotinyl-Phe-oxazolone): 2.12

Sequence: CUACUACAAACAAUCAGUCUG [Fam1A.1 aminoacylation ribozyme variant]
- self-aminoacylation (biotinyl-Leu-oxazolone): 0.7
- self-aminoacylation (biotinyl-Ile-oxazolone): 0.657
- self-aminoacylation (biotinyl-Val-oxazolone): 0.732
- self-aminoacylation (biotinyl-Met-oxazolone): 0.467
- self-aminoacylation (biotinyl-Trp-oxazolone): 0.554
- self-aminoacylation (biotinyl-Phe-oxazolone): 0.88

Sequence: CCACACUUCUAGCAAUCGGUC [Fam1B.1 aminoacylation ribozyme variant]
- self-aminoacylation (biotinyl-Leu-oxazolone): 0.624
- self-aminoacylation (biotinyl-Ile-oxazolone): 0.771
- self-aminoacylation (biotinyl-Val-oxazolone): 0.852
- self-aminoacylation (biotinyl-Met-oxazolone): 0.611
- self-aminoacylation (biotinyl-Trp-oxazolone): 0.616
- self-aminoacylation (biotinyl-Phe-oxazolone): 0.957

Sequence: AUUCACCUAGGUAAUCGGAUG [Fam2.2 aminoacylation ribozyme variant]
- self-aminoacylation (biotinyl-Leu-oxazolone): 0.546
- self-aminoacylation (biotinyl-Ile-oxazolone): 0.61
- self-aminoacylation (biotinyl-Val-oxazolone): 0.524
- self-aminoacylation (biotinyl-Met-oxazolone): 0.585
- self-aminoacylation (biotinyl-Trp-oxazolone): 0.594
- self-aminoacylation (biotinyl-Phe-oxazolone): 0.527

Sequence: AAUCACCUAGGUCAGCGGGUG [Fam2.2 aminoacylation ribozyme variant]
- self-aminoacylation (biotinyl-Leu-oxazolone): 4.16
- self-aminoacylation (biotinyl-Ile-oxazolone): 4.05
- self-aminoacylation (biotinyl-Val-oxazolone): 2.9
- self-aminoacylation (biotinyl-Met-oxazolone): 4.61
- self-aminoacylation (biotinyl-Trp-oxazolone): 4.58
- self-aminoacylation (biotinyl-Phe-oxazolone): 28.9
